The text below walks through data of patent US20070253958A1 (Bristol-Myers Squibb, published 2007).

In test [1] the target is T1, FcγRI (CD64), on cells (UniProt P12314 16-374, limits assumed).
T1 construct: whole, on cells
Kind of test: cell-based or functional assay.

Test [2] concerns the target T2, FcαR (CD89), on transfected IIA1.6 cells (UniProt P24071 22-287, limits assumed).
T2 construct: whole, on cells; also called Fcα receptor; FcαRI
Description: flow cytometry on CD89-transfected cells, mean fluorescence intensity; concentration not given. (In general: A flow cytometer gives signals particle by particle.)

Test [3] deals with T3, FcγRIIIa (CD16), on cells (UniProt P08637 17-254, limits assumed).
T3 construct: whole, on cells; also called CD16A
T3 sequence (P08637 17-254 limits assumed): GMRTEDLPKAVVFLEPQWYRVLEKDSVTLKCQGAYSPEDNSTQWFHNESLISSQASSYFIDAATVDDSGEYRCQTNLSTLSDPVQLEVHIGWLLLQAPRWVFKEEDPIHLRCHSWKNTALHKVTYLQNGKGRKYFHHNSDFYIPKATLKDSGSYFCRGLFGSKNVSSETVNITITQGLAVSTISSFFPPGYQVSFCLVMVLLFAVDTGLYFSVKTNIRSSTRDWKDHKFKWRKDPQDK
Description: flow cytometry on CD16A-expressing cells, mean fluorescence intensity; concentration not given.

Test [4] concerns the target T4, FcγRIIa-R131 (CD32, arginine at position 131), on cells (human, UniProt P12318 34-317).
T4 construct: whole, on cells; A database entry may carry H at that site, so the arginine must be set by hand; also called FcγRIIa-R131 allotype; IIA1.6 FcγRIIa-R131 transfectants
T4 sequence (looked up): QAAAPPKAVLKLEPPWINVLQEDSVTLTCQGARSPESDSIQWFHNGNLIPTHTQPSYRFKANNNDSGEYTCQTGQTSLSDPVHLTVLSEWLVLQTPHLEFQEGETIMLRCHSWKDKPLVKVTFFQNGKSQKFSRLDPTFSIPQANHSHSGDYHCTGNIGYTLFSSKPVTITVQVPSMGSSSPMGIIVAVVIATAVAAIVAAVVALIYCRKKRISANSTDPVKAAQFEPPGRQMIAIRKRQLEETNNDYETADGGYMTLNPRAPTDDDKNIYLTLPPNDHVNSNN
Description: flow cytometry on transfected cells, mean fluorescence intensity; antibody concentration not given.

Test [5] concerns the target T1, FcγRI (CD64), on cells. Kind of test: flow cytometry on CD64-expressing cells, mean fluorescence intensity; concentration not given.
The target of a further test is T5, CD20 (human, UniProt P11836).
T5 construct: full length, on cells; also called CD20 on cells; Raji cells expressing CD20
T5 sequence (membrane protein on cells, looked up): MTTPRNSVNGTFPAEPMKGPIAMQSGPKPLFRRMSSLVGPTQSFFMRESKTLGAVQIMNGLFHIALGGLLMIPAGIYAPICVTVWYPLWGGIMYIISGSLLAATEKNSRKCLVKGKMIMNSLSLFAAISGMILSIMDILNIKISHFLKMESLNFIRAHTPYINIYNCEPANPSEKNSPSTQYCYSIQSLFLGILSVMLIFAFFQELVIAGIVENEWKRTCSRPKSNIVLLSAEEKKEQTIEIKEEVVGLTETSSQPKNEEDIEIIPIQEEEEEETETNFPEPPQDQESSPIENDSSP
Description: flow cytometry on CD20-expressing cells, mean fluorescence intensity; concentration not given.

T1 sequence (P12314 16-374 limits assumed): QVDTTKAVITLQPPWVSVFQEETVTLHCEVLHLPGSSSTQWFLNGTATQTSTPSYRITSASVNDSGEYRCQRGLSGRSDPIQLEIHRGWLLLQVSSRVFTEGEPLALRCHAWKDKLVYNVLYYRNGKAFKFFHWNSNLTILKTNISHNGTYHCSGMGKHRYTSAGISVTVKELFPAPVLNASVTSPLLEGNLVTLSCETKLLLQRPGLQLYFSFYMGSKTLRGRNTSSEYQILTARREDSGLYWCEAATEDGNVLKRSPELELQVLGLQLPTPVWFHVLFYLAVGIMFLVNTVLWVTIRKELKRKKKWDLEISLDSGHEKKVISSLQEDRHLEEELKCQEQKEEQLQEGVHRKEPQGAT
T2 sequence (P24071 22-287 limits assumed): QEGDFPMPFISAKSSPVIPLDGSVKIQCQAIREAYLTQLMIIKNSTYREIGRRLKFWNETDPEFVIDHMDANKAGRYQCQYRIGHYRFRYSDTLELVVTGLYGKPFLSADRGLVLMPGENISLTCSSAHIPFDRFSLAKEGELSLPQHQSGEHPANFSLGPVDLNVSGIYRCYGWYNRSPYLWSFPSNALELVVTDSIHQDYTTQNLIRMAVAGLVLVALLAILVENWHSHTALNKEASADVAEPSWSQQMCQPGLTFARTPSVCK

In the case of humanized CD64 mAb H22 (antibody), in the test with FcγRI (CD64), on cells [1], the reduction of FcγRI membrane expression came out at 60%.

B1: human monoclonal antibody MDE-8 (whole IgG) (antibody, V domains shown)
VH: QVHLVESGGGVVQPGRSLRLSCAASGFTFSSYGMHWVRQAPGKGLEWVAVIWYDGSNYYYTDSVKGRFTISRDNSKNTLYLQMNSLRAEDTAVYYCARDLGAAASDYWGQGTLVTVSS
VL: AIQLTQSPSSLSASVGDRVTITCRASQGINSALAWYQQKPGKAPKLLIYDASSLESGVPSRFSGSGSGTDFTLTISSLQPEDFATYYCQQFNSYPHTFGQGTKLEIK
notes: Hybridoma-derived fully human IgG, kappa from HuMab HCo7 mice; a human IgG1 mAb served as its isotype control; also called HuMAb MDE-8; MDE-8 IgG
As to B1, the binding result was “no binding” in test [2]; “no binding” in test [3]; “binds” in test [4]; “no binding” with FcγRI (CD64), on cells [5]; “no binding” with CD20.
